Data published in paper PMC6800506.

Biological target: tau RD containing the disease-associated P301S substitution fused to either CFP or YFP (human) (UniProt P10636)
Assay: FRET or BRET; HEK293T tau biosensor cells with up to 200 nM freshly prepared, oligomeric or fibrillar Aβ, no tau seeds, no transfection reagent; FRET by flow cytometry after 48 h and after 2 weeks

- integrated FRET density (IFD): < 10
Substance: tau RD containing the disease-associated P301S substitution fused to either CFP or YFP (from UniProt P10636-8 244-372) (domain or fragment)
